Here are results for 1 molecule from PMC4948679.

The assay concerns the target Ab2/3H6, murine/wild-type anti-idiotypic antibody (wt3H6) (mouse (developed from mouse hybridoma)). Description: BLI. Background: In BLI a coated tip is dipped into the sample, and binding shifts an interference pattern.

“And” between values parts separate entries of the source, which are not always exact repeats. Equal values may be shown once.

B1: broadly neutralizing anti-HIV-1 antibody 2F5 (antibody, V domains shown)
VH: RITLKESGPPLVKPTQTLTLTCSFSGFSLSDFGVGVGWIRQPPGKALEWLAIIYSDDDKRYSPSLNTRLTITKDTSKNQVVLVMTRVSPVDTATYFCAHRRGPTTLFGVPIARGPVNAMDVWGQGITVTISS
VL: ALQLTQSPSSLSASVGDRITITCRASQGVTSALAWYRQKPGSPPQLLIYDASSLESGVPSRFSGSGSGTEFTLTISTLRPEDFATYYCQQLHFYPHTFGGGTRVDVR
As to B1, the response level was 3.5 nm and 3.4 nm.
